Source: paper PMC3084679 (Molecular Biology of the Cell, 2011)

Target: recombinant Roy1–Skp1 complex (S. cerevisiae, UniProt Q04847 1-553; P52286 1-194)
Assay: pull-down

Sequence of recombinant Roy1–Skp1 complex (Q04847 whole entry, chain 1 of 2): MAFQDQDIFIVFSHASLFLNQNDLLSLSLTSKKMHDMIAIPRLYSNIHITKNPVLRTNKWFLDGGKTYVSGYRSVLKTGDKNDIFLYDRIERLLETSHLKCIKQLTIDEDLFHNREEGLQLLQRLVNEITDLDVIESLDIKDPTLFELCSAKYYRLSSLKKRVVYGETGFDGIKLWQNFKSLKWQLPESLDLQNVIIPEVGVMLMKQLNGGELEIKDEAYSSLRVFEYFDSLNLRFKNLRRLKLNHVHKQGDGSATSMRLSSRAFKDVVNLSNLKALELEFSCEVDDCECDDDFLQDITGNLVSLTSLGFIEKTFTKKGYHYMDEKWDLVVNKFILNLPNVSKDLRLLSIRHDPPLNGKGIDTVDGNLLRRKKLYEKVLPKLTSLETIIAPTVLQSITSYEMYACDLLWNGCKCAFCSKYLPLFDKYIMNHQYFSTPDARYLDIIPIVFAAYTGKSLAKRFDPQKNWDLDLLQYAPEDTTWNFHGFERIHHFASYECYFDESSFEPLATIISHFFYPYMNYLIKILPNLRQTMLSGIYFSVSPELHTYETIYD
Sequence of recombinant Roy1–Skp1 complex (P52286 whole entry, chain 2 of 2): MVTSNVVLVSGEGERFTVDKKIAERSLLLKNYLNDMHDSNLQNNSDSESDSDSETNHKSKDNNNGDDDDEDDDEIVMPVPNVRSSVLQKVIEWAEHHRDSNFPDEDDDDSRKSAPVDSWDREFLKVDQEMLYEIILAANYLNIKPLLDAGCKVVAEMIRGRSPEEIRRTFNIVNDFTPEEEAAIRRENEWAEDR

B1: GST-Ypt52 (natural protein, S. cerevisiae, UniProt P36018 1-234, looked up)
chain: MLQFKLVLLGDSSVGKSSIVHRFVKDTFDELRESTIGAAFLSQSITIHPNDGNETKDVVIKFEIWDTAGQERYKSLAPMYYRNANAALVVYDITQEDSLQKARNWVDELKNKVGDDDLVIYLLGNKVDLCQETPSTETSPDSNEGGDEEQKVRAISTEEAKQYAQEQGLLFREVSAKTGEGVKEIFQDIGEKLYDLKKDEILSKQNRQIGGGNNGQVDINLQRPSTNDPTSCCS
B1: binds.
